Among the data in paper PMC10320017 are stoichiometry N values, retold here.

The target of this experiment is SARS-CoV-1 S/native spike ectodomain (with C-terminal foldon and His tag) (SARS coronavirus Tor2 (SARS-CoV-1)). Kind of experiment: negative-stain EM.

“SARS-CoV-1 S/native spike ectodomain (with C-terminal foldon and His tag) (domain or fragment)”: the stoichiometry N (usually a count of units in the complex or per binding partner) came out at 3.
